Consider 2 substances from paper PMC10397321.

Test [1] concerns the target photosystem I (PSI) monomer (Synechocystis sp. PCC 6803) (UniProt P29254).
Test [2] shares this target. Put plainly: cryo-EM structure; native PSI3-IsiA18 supercomplex co-purified from Synechocystis sp. PCC 6803 membranes in DDM; 30 mM Tricine-NaOH pH 8, 75 mM NaCl, 0.02% DDM; 1.5 mg chlorophyll/ml; vitrified on holey carbon grids; C3 symmetry expansion and multibody refinement.

Sequence of iron-stressed induced protein A (IsiA) (Q55274 whole entry): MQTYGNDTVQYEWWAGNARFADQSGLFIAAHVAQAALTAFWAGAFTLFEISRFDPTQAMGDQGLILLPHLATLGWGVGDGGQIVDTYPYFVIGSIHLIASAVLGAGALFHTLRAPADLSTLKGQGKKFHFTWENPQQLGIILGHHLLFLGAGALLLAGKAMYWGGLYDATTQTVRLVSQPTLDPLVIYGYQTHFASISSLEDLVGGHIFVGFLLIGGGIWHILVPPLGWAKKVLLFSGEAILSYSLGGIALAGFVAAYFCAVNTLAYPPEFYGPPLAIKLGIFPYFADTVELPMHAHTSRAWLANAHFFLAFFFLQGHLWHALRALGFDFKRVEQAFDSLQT
Sequence of photosystem I (PSI) monomer (Synechocystis sp. PCC 6803) (P29254 whole entry, looked up): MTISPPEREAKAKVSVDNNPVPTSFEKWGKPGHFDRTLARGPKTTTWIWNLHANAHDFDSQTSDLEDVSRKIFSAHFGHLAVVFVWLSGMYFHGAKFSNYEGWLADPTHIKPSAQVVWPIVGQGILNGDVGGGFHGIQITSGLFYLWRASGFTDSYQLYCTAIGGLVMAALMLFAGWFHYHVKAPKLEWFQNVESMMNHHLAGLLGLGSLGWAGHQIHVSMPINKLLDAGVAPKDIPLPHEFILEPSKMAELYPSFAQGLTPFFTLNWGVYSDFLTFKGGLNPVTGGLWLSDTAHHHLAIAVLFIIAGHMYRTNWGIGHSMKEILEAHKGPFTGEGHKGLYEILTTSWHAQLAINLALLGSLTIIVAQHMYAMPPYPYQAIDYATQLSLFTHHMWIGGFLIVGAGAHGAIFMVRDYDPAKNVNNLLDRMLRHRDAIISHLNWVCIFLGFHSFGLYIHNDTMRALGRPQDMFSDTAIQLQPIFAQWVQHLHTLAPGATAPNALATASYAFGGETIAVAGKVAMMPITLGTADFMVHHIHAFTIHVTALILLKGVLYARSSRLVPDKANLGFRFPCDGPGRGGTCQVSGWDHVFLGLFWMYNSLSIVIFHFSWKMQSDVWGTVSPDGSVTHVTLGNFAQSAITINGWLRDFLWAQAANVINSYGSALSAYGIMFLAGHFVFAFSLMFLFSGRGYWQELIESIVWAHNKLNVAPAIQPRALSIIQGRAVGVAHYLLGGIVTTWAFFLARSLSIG

Consider “iron-stressed induced protein A (IsiA) (from UniProt Q55274 1-342) (natural protein)”, for which, in test [1], the single-molecule fluorescence lifetime: share of complexes with bi-exponential decay at all intensity levels (partially coupled, population II) amounted to 4%; the single-molecule fluorescence lifetime: share of complexes with fast mono-exponential decay at all intensity levels (continuously coupled) worked out at 60%; the single-molecule fluorescence lifetime: share of complexes with mono-exponential levels interleaved with bi-exponential levels (transiently coupled, population I) is 36%.
For orientation: stoichiometry N means a count of units in the complex or per binding partner. In test [2], “photosystem I (PSI) monomer (from UniProt P29254 1-751; P29255 1-731; P29256 24-165; Q55329 1-40; P72712 1-86) (complex)” returned a stoichiometry N of 3.
